According to article PMC9769368:

Target: AAVGo.1 virus-like particles (goat adeno-associated virus capsid, without DNA genome) (goat adeno-associated virus AAVGo.1)
Test: ELISA; direct ELISA in duplicate; AAV VLPs (2.5 ug/mL) coated on plates in 100 mM NaHCO3 pH 9.6, washed with TBST; N-terminally His-tagged AAVR fragment added, detected with anti-6x His HRP antibody; OD 450 nm; EC50 by nonlinear regression (avidity)

Substance	fold stronger binding avidity than AAV5
His6PKD1, fragment of human AAV receptor (AAVR) with PKD domain 1 (domain or fragment)	3 fold
His6PKD12, fragment of human AAV receptor (AAVR) with PKD domains 1 and 2 (domain or fragment)	2 fold
